Measurements reported in patent US20200392183A1 (Memorial Sloan Kettering, published 2020).

B1: native WT1 peptide NQMNLGATL (SEQ ID NO:5) (peptide)
peptide: NQMNLGATL
notes: Synthetic 9-mer from Genemed Synthesis; also called native peptide; A24-native peptide

These binders were tested against T1, HLA-A0201 molecule on T2 cells (TAP-, HLA-A0201+) (human) (assay: T2 stabilization assay, surface HLA-A2 by flow cytometry (BB7.2)).
T1 construct: Empty, thermolabile HLA-A0201 on T2 cells; also called HLA-A2; HLA-A2 molecule
Experimental: T2 cells (TAP-, HLA-A0201+) were incubated overnight at 37° C. at 1×10⁶ cells/ml in FCS-free RPMI medium supplemented with 10 ug/ml human beta-2m (Sigma, St Louis, Mo., USA) in the absence (negative control) or presence peptides at various final concentrations (50, 10 and 2 ug/ml). Brefeldin A (Sigma) at 5 ug/ml was added to the cultures for the final two hrs of incubation. Then T2 cells were washed and stained with anti-HLA-A2.1 (BB7.2) mAb conjugated to FITC for 30 min at 4° C. and followed by washing with staining buffer (PBS plus 1% FBS and 0.02% azide). The expression of the HLA-A2 on the cell surface was measured by flow cytometry on a FACScalibur (Becton Dickinson) and analyzed with FlowJo 9.6.3 software.
B1: no binding (tested: 50, 10 and 2 ug/ml tested).
NYMNLGATL (also called A24-het-2; Het24-2) [heteroclitic WT1 analogue peptide NYMNLGATL (SEQ ID NO:7)]: no binding (tested: 50, 10 and 2 ug/ml tested).
NLMNLGATL (also called A24-het-1; Het24-1) [heteroclitic WT1 analogue peptide NLMNLGATL (SEQ ID NO:6)]: binds.
